Data as given in patent US7070943B2 (priority 1998, dated 2006).

How the values were obtained:
Type in all cases: cell-based, Human
[1] = tested on: U937 cells; assay: Cell cycle distribution and apoptotic (sub-G1) cells by DNA content flow cytometry; details: U937, 170 nM
Protocol: FIG. 11 presents growth and viability curves (a) as well as cell cycle distribution (b) of U937 cells maintained in the absence (CTRL) and presence of 170 nM (2.0 μg/ml) ONCONASE® (ONC) for up to 72 h. The percentage of dead cells was estimated based on the trypan blue exclusion test. The percentage of cells in the respective phases was estimated flow cytometrically based on their DNA content. Apoptotic cells (Ap) were recognized as the cells with fractional DNA content (sub-G1), as previously described;
Anti-cyclin D3 mAb immunofluorescence in combination with DNA content was measured by multiparameter flow cytometry (a). The cells were growing either in the absence (Exp, exponential growth) or in the presence of 170 nM ONCONASE® for 48 hours (Onc). There were 48%, 38% and 14% of cells in G1, S, and G2/M in Exp culture compared with 64%, 24% and 13% cells in G1, S, and G2/M, respectively, in Onc culture. The scattergrams represent bivariate distributions of the cells with respect to their cyclin D3 vs. DNA content associated fluorescence intensities. The upper level of the isotype-matched control (mean fluorescence+3 standard deviations) is marked in the Exp panel with a dashed line. The bar plots represent the mean FITC (anti-cyclin D3 mAb) fluorescence values (arbitrary units) of the cells in different phases of the cycle (gated based on differences in DNA content as shown in the Exp panel), after subtraction of the background fluorescence, i.e., mean fluorescence of the same cells but stained with isotype-matched control IgG antibody. Western blots (b) show expression of cyclin D3 in control culture and in the culture treated with Onconase 48 h;
Following incubations in the absence or presence of ONCONASE®, the cells were washed with phosphate-buffered saline (PBS) and fixed in suspension in either ice-cold 80% ethanol or absolute methanol for up to 24 h. After fixation, the cells were washed twice with PBS and then suspended in 1 ml of 0.25% Triton X-100 (Sigma, St. Louis, Mo., USA) in PBS on ice for 5 min. The cells were then centrifuged (300 g, 5 min), the cell pellet suspended 100 μl PBS containing 0.5 μg of the anti-cyclin (or anti-CKI) mAb and 1% bovine serum albumin (BSA; Sigma), and incubated for 2 h at room temperature. Anti-cyclin D3 (clone G107-565); anti-cyclin E (clone HE12); anti-p16^INK4a (clone G175-405); and […] (clone SX118) and anti-p27^KIP1 (clone G173-524) mAbs, all were obtained from PharMingen (San Diego, Calif., USA). After incubation with the respective mAbs the cells were rinsed with PBS containing 1% BSA and incubated with the FITC-conjugated goat anti-mouse IgG antibody (Molecular Probes) diluted 1:30 in PBS containing 1% BSA for 30 min at room temperature in the dark. […]
Cellular fluorescence was measured with the ELITE ESP flow cytometer/cell sorter (Coulter, Miami, Fla., USA) using either argon ion laser (emission at 488 nm) alone or combined with helium-cadmium laser (emitting UV light). In the first case, fluorescence signals were collected using the standard configuration of the flow cytometer (green fluorescence, representing directly or indirectly FITC-labeled antibodies; red fluorescence representing CYCHROME® tagged anti-pRB^T mAb). In the second case, DNA content was analyzed based on DAPI fluorescence (blue emission) excited by UV light, while the anti-pRB^P− mAb (FITC) and anti-pRB^T (Cy-Chrome®) related emission was excited with blue light laser. […]

[2] = tested on: p21^WAF1/CIP1; assay: p21^WAF1/CIP1 expression by flow cytometry in U937 cells; details: U937, 170 nM, 72 hours
Protocol: Following incubations in the absence or presence of ONCONASE®, the cells were washed with phosphate-buffered saline (PBS) and fixed in suspension in either ice-cold 80% ethanol or absolute methanol for up to 24 h. After fixation, the cells were washed twice with PBS and then suspended in 1 ml of 0.25% Triton X-100 (Sigma, St. Louis, Mo., USA) in PBS on ice for 5 min. The cells were then centrifuged (300 g, 5 min), the cell pellet suspended 100 μl PBS containing 0.5 μg of the anti-cyclin (or anti-CKI) mAb and 1% bovine serum albumin (BSA; Sigma), and incubated for 2 h at room temperature. […]
Cellular fluorescence was measured with the ELITE ESP flow cytometer/cell sorter (Coulter, Miami, Fla., USA) using either argon ion laser (emission at 488 nm) alone or combined with helium-cadmium laser (emitting UV light). In the first case, fluorescence signals were collected using the standard configuration of the flow cytometer (green fluorescence, representing directly or indirectly FITC-labeled antibodies; red fluorescence representing CYCHROME® tagged anti-pRB^T mAb). In the second case, DNA content was analyzed based on DAPI fluorescence (blue emission) excited by UV light, while the anti-pRB^P− mAb (FITC) and anti-pRB^T (Cy-Chrome®) related emission was excited with blue light laser.

[3] = tested on: underphosphorylated pRB; assay: pRB phosphorylation in U937 cells, anti-pRB^P− mAb flow cytometry; details: U937, 170 nM
Source text: (§1) Also shown are cells from the culture at higher cell density (>10^6 cells/ml) where proliferation declined because of cell crowding (d). The cells reacting with anti-pRB^P− were in G0/1 phase (open arrows). The dashed line indicates the upper level of background fluorescence, i.e. of the cells pretreated with alkaline phosphatase. The percentage of cells reacting with anti-pRB^P− mAb was increased in the ONCONASE®-treated and crowded cultures compared to the control. No significant changes in expression of pRB detected by the antibody that reacts with this protein regardless of its phosphorylation status (anti-pRB^T) were observed between ONCONASE®-treated and control cells (not shown).
(§2) The status of phosphorylation of pRB in individual cells was monitored using a combination of anti-pRB antibodies, one specifically detecting underphosphorylated pRB (anti-pRb^P− mAb) and another which reacts with total pRB, regardless of its phosphorylation (anti-pRB^T mAb). […] The cells were then rinsed with PBS containing 1% BSA and their pRB associated green (anti-pRB^P−) and red (anti-PRB^T) fluorescence was measured by flow cytometry.
(§3) Cellular fluorescence was measured with the ELITE ESP flow cytometer/cell sorter (Coulter, Miami, Fla., USA) using either argon ion laser (emission at 488 nm) alone or combined with helium-cadmium laser (emitting UV light). […]

[4] = tested on: total pRB; assay: Total pRB in U937 cells, anti-pRB^T mAb flow cytometry
Source text: as §1, §2, §3

[5] = tested on: p21^WAF1/CIP1; assay: Western blot of p21^WAF1/CIP1 in U937 cells; details: U937, 170 nM, 72 hours
Source text: (§4) To reveal specificity of the antibodies that were used, a standard immunoblotting procedure was used on cellular lysates.

[6] = tested on: p27^KIP1; assay: Western blot of p27^KIP1 in U937 cells; details: U937, 17 and 170 nM, 72 h; not detected in Exp cells
Source text: as §4

B1: ONCONASE®: basic protein of 12,000 MW isolated from oocytes or early embryos of Rana pipiens, homologous to pancreatic RNase A (protein, UniProt P22069 1-104, looked up)
Protein P-30: QDWLTFQKKHITNTRDVDCDNIMSTNLFHCKDKNTFIYSRPEPVKAICKGIIASKNVLTTSEFYLSDCNVTSRPCKYKLKKSTNKFCVTCENQAPVHFVGVGSC
cells in G2/M ([1]; 48 hours (Exp culture 14%)): 13% | cells in S ([1]; 48 hours (Exp culture 38%)): 24% | cells in G1 ([1]; 48 hours (Exp culture 48%)): 64% | proportion of cells in G0/1 phase ([1]; after 72 h (from 47% in control)): ~70% | percentage of apoptotic cells (sub-G1) ([1]; up to 72 h (from 2%)): 6% | increase in p21^WAF1/CIP1 [2]: Over four-fold | proportion of cells stainable with anti-pRB^P− ([3]; 48 h (control 2.4%)): 40.5% | proportion of cells stainable with anti-pRB^P− ([3]; 72 h (control 2.4%)): 43.3% | effect on total pRB (anti-pRB^T) [4]: no effect | p21^WAF1/CIP1 band, Western blot [5]: band only in the ONCONASE®-treated cells | p27^KIP1 bands, Western blot [6]: strong bands
